Here are results for six molecules from PMC9951844 (Nature Communications, 2023).

B1: YB12-269 (antibody, V domains shown)
VH: EVQLVESGGALVRPGGSLRVSCAASGITVNFNYMTWVRQGPGKGLEWVASIYPGGSTFYADSVKGRFTISRDNSKNTLYLQMTSVRDEDTALYYCARDEGPGMDVWGQGTTVTVSS
VL: QSVLTQPPSVSGAPGQRVTISCTGYSSNIEAGSDVHWYQQPPGTAPKLLIYNNNNRPSGVPDRFSGSKSGTSASLAITGLQPGDEGDYYCQSYDSRLSGYVFGTGTKVTVL
B2: YB12-267 (antibody, V domains shown)
VH: KVQLVESGGGLIQPGGSLRLSCAASGLTVSSNYMNWVRQAPGKGLEWVSLIFSGGSTYYADSVKGRFTISRDYSKNTLYLQMNSLRAEDTAVYYCARDLMEVGGMDVWGQGTTVTVSS
VL: QSVLTQPPSASGTPGQRVTISCSGSSSYIGSIYWYQQLPGAAPKLLVFSDHKRPSGVPDRFSGSKSGTSASLAISGLQSEDEAGYYCATWDDSLNGYVFGTGTKVTVL
B3: YB12-197 (antibody, V domains shown)
VH: EVQLVESGGGLVQPGGSLRLSCAASGFTVSSNYMNWVRQAPGKGLEWVSVIYSGGSTFYADSVKGRFTISRDNSKNTLYLQMNSLRAEDTAVYYCARDAYNYGANWGQGTLVTVSS
VL: HLVLTQSPSASASLGASVKLTCTLSSGHSNNAIAWHQQQPEKGPRYLMHLNSDGSHTKGDGIPDRFSGSSSGAERYLTISSLQSEDEAEYYCQTWGTDIHWVFGGGTKLTVR
B4: YB9-120 (antibody, V domains shown)
VH: QVQLQESGPGLVKPSGTLSLTCAVSGGSIRTTKWWSWVRQPPGKGLEWIGEIHHGGNTNYNPSLKSRVTISVDKSKNQFSLKLTSVTAADTAVYYCARDGGGVGTPLEYWGQGTLVTVSS
VL: QSGLTQPASVSGSPGQSITISCTGTISDVGAYNYVSWYQQHPGRAPKVVIYDVSERPSGTSNRFSGSKSGNTASLTISGLQAEDEADYYCSSFTNTTPVVFGGGTKLTVL
B5: YB13-208 (antibody, V domains shown)
V domain 1: QITLKESGPTLVKPTQTLTLTCTFSGLSLSTSGVSVGWIRQPPGKAPEWLALIYWDDDKRYSPSLTSRLSITKDTSKNQVVLTMTNMDPVDTATYYCAHPRYYGDSSGYYWIWGQGTMVTVSS
V domain 2: SYELTQPPSVSVSPGQTARITCSGDALPKQYAYWYQQKPGQAPVVVMYKTSERPSGIPERFSGSSSGTTVTLTISGVQAEDEADYYCQSADSSGFYVFGTGTQVTVL
B6: YB13-281 (antibody, V domains shown)
VH: EVQLVESGGGLVKPGGSLRLSCAASGFTFSSYSMNWVRQAPGKGLEWVSSISSSSSYIHYADSVKGRFTISRDNAKNSLYLQMNSLRAEDTAVYYCARVSSKDYYDRSGYLRGDYDYGMDVWGQGTTVTVSS
VL: QSVLTQPPSVSGAPGQRVTISCTGNSSNIGAAYDVHWYQQLPGTAPKLLIYGNSNRPSGVPDRFSGSKSGTSASLAITGLQAEDEADYYCQSYDSSLSGVFGGGTKLTVL

In the first assay the target is SARS-CoV-2 Beta (B.1.351) S1 (SARS-CoV-2 Beta (B.1.351), strain).
Consider B1, for which the binding result is recorded as “binds”.

With B2, the binding result is on record as “binds”.

In the case of B3, the binding result is “binds”.

As for B4, the binding result is listed as “binds”.

In the case of B5, the binding result is listed as “binds”.

For the molecule B6, the binding result is “binds”.

The target of another assay is SARS-CoV-2 Omicron BA.1 (B.1.1.529) RBD (SARS-CoV-2 Omicron BA.1 (B.1.1.529), strain).
For B1, the binding result is “binds”.

As for B2, the binding result is “binds”.

For the molecule B3, the binding result is “binds”.

Regarding B4, the binding result was “binds”.

Take B6: the binding result was “binds”.

In another assay the target is SARS-CoV-2 Gamma (P.1) S1 (SARS-CoV-2 Gamma (P.1), strain).
Consider B1, for which the binding result is reported as “binds”.

In the case of B2, the binding result is listed as “binds”.

B3: the binding result is given as “binds”.

Consider B4, for which the binding result is on record as “binds”.

As to B5, the binding result is “binds”.

Take B6: the binding result is on record as “binds”.

The next assay addresses SARS-CoV-2 Kappa (B.1.617.1) spike ECD (SARS-CoV-2 Kappa (B.1.617.1), strain).
Regarding B1, the binding result is reported as “binds”.

Consider B2, for which the binding result is given as “binds”.

Regarding B3, the binding result was “binds”.

As for B4, the binding result was “binds”.

On to B5, for which the binding result was “binds”.

On to B6, for which the binding result was “binds”.

Another assay has as its target SARS-CoV-2 Lambda (C.37) RBD (SARS-CoV-2 Lambda (C.37), strain).
Regarding B1, the binding result is listed as “binds”.

As for B2, the binding result is on record as “binds”.

On to B3, for which the binding result is reported as “binds”.

For the molecule B4, the binding result is “binds”.

For the molecule B5, the binding result was “binds”.

With B6, the binding result is “binds”.

The target of the next assay is SARS-CoV-2 wildtype S1 (SARS-CoV-2 wildtype (Wuhan), UniProt P0DTC2).
Turning to B1, the binding result is recorded as “binds”.

B2: the binding result was “binds”.

As for B3, the binding result was “binds”.

Consider B4, for which the binding result was “binds”.

Turning to B5, the binding result was “binds”.

For the molecule B6, the binding result is on record as “binds”.

Another assay addresses Delta spike (based on S-R/Wildtype spike) (SARS-CoV-2 Delta (B.1.617.2), L452R | T478K).
Consider B3, for which the binding result is on record as “binds”.

Regarding B4, the binding result was “binds”.

As to B5, the binding result is “binds”.

For B6, the binding result is “binds”.

The target of another assay is S-R/Wildtype spike (SARS-CoV-2 hCoV-19/Wuhan/WIV04/2019, UniProt P0DTC2, stabilised).
In the case of B3, the binding result is given as “binds”.

As to B4, the binding result is given as “binds”.

On to B5, for which the binding result is given as “binds”.

Turning to B6, the binding result was “binds”.

A further assay concerns the target Omicron BA.1 spike (based on S-R/Wildtype spike) (SARS-CoV-2 Omicron BA.1 (B.1.1.529), S371L | S373P | S375F | K417N).
As to B3, the binding result was “binds”.

In the case of B4, the binding result is listed as “binds”.

For B5, the binding result was “binds”.

In the case of B6, the binding result was “binds”.

The next assay concerns the target SARS-CoV-2 Delta (B.1.617.2) S1 (SARS-CoV-2 Delta (B.1.617.2), strain).
Turning to B1, the binding result is listed as “binds”.

For the molecule B2, the binding result is on record as “binds”.

For the molecule B3, the binding result was “binds”.

On to B4, for which the binding result is on record as “binds”.

In the case of B5, the binding result is listed as “binds”.

As for B6, the binding result was “binds”.
